Laboratory results: article doi:10.1101/2023.08.20.554025

Columns and labels:
Experiment in all cases: negative-stain EM
[1] = target: GhV F I268F/Q287P ectodomain (Ghanaian virus (GhV))
[2] = target: GhV F S196C/A215C ectodomain (Ghanaian virus (GhV))
[3] = target: GhV F I268F/Q287P/S196C/A215C ectodomain (Ghanaian virus (GhV))

“GhV F I268F/Q287P ectodomain (domain or fragment)” was tested, and the stoichiometry N [1] was 3.

“GhV F S196C/A215C ectodomain (domain or fragment)” showed a stoichiometry N [2] of 3.

“GhV F I268F/Q287P/S196C/A215C ectodomain (domain or fragment)” showed a stoichiometry N [3] of 3.
